This note sets out measurements from patent US20250002610A1 (Genmab, published 2025).

Assay [1] has as its target T1, human DR4 (Death Receptor 4), cell surface expressed on human tumor cell lines (human, UniProt O00220 24-468).
T1 construct: also called TNFRSF10A; TRAIL-R1
T1 sequence: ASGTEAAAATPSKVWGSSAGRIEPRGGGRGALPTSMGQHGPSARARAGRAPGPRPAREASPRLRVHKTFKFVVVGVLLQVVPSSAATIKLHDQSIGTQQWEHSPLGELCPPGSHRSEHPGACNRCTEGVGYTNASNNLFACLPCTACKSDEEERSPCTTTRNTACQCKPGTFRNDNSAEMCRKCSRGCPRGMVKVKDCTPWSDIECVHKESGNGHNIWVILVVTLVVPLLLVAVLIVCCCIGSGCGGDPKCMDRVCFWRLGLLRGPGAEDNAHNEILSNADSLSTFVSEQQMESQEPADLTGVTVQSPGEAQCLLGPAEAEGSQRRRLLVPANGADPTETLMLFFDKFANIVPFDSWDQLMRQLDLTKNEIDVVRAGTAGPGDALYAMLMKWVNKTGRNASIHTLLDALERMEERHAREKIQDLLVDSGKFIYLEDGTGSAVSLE
In words: flow cytometry, DLD-1 cells, n = 3. (In general: A flow cytometer gives signals particle by particle.)

Assay [2] deals with T1, human DR4 (Death Receptor 4), cell …. Kind of assay: flow cytometry, DLD-1 cells, n = 2.
For assay [3], the target named is T2, human FAPα (Fibroblast activation protein alpha), cell surface expressed (human, UniProt Q12884 1-760).
T2 construct: Endogenous on human lung fibroblasts and CAFs
T2 sequence: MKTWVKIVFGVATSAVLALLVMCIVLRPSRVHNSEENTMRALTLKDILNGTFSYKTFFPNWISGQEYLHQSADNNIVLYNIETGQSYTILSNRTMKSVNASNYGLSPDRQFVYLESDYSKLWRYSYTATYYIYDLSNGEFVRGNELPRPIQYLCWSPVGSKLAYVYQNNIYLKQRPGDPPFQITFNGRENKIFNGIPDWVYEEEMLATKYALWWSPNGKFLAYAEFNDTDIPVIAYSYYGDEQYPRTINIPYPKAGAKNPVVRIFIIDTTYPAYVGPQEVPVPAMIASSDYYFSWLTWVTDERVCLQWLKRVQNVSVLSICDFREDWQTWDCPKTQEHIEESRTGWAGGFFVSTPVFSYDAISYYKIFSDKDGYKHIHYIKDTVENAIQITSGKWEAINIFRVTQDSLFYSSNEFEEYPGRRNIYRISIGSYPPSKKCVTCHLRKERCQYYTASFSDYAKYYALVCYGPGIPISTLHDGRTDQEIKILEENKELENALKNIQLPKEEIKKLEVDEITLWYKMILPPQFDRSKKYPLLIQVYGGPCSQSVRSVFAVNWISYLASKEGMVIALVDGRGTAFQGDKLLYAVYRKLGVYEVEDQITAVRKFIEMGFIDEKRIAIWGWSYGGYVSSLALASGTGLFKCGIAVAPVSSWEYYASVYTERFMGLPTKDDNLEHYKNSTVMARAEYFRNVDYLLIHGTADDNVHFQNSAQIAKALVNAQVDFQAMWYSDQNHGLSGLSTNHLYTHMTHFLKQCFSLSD
Kind of assay: flow cytometry, Expi293F cells expressing human FAPα, average ± SEM. Here is the method:
(§1) Binding of BisG1-FAPα-FERL/DR4-FERR, BisG1-FAPα-FEAL/b12-FEAR and IgG1-FAPα-FERL to FAPα of species commonly used for nonclinical toxicology studies was assessed by flow cytometry using Expi293F cells transiently expressing FAPα from different animal species. IgG1-b12 was included as negative control.
(§2) Expi293F cells expressing recombinant FAPα from various species (human, cynomolgus monkey, dog, pig, rat or mouse) were seeded (20,000 cells/well) in 96-Well round bottom plates (Greiner Bio-one, Cat #650101). Antibody dilutions were prepared using FACS buffer, consisting of PBS (Capricorn Scientific, Cat #PBS-10XA, diluted to 1×PBS in distilled water)+1% BSA (Roche, Cat #10735086001)+0.02% Sodium Azide (Bio-World, Cat #41920044-3). Plates were centrifuged, supernatant was removed, and cells were resuspended in 100 μL of antibody dilutions (concentration range 30-0.00017 μg/mL with three-fold serial dilutions using FACS buffer) of BisG1-FAPα-FERL/DR4-FERR, BisG1-FAPα-FEAL/b12-FEAR, IgG1-FAPα-FERL and IgG1-b12 and incubated for 30 min at 4° C. […] After 30 min incubation at 4° C., cells were washed with FACS buffer and resuspended in FACS buffer supplemented with TO-PRO-3 Iodide viability marker (Invitrogen, Cat #T3605, diluted 1:4,000). Antibody binding to viable cells (gMFI of PE on TO-PRO-3 negative cells) was analyzed by flow cytometry on a FACS Celesta and FACS_Diva software (first two experiments) or iQue® 3 and FlowJo software (last experiment). gMFI was determined and visualized using GraphPad Prism. Binding curves were analyzed using nonlinear regression analysis. The concentration (pg/mL) at which 50% of the maximal effect was observed (EC₅₀) was derived from the fitted curves.

Assay [4] deals with T3, pig FAPα on Expi293F cells (pig (Sus scrofa), UniProt A5D7B7 1-760 (bovine entry)).
T3 chain: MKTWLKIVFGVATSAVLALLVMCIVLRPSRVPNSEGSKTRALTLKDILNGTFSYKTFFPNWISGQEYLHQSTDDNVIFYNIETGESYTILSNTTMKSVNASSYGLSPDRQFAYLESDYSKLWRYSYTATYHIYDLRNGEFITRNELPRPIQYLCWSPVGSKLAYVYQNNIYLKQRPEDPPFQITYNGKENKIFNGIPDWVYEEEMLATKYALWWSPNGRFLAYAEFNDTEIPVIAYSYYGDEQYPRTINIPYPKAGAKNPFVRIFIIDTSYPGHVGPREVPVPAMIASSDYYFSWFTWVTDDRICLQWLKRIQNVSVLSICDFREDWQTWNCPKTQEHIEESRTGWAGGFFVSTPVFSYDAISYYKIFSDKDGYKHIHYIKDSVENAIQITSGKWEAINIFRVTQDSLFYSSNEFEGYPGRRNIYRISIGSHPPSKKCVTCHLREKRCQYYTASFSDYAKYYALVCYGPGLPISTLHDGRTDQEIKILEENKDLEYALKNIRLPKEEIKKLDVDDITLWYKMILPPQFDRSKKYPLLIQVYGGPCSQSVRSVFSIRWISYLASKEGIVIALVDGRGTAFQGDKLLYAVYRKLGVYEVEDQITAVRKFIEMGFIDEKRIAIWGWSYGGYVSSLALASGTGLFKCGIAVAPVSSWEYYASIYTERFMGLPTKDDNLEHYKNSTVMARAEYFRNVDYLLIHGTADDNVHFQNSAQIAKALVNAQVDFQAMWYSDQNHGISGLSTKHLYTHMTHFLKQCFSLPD
In words: flow cytometry on Expi293F cells transiently expressing pig FAPα, gMFI PE. Here is the method:
as §1, §2

B1: BisG1-FAPα-FERL/DR4-FERR (bispecific antibody, human IgG1, kappa, lambda)
heavy 1: EVQLLESGGGLVQPGGSPRLSCEASGFTFSSYALSWVRQAPGKGLEWVSAISGSGGGRYYADSVKGRFTISRDNSKNTLFLQMNSLRAEDTAVYYCAKEGYSSSGTYWDHWGQGTLVTVSSASTKGPSVFPLAPSSKSTSGGTAALGCLVKDYFPEPVTVSWNSGALTSGVHTFPAVLQSSGLYSLSSVVTVPSSSLGTQTYICNVNHKPSNTKVDKRVEPKSCDKTHTCPPCPAPEFERGPSVFLFPPKPKDTLMISRTPEVTCVVVDVSHEDPEVKFNWYVDGVEVHNAKTKPREEQYNSTYRVVSVLTVLHQDWLNGKEYKCKVSNKALPAPIEKTISKAKGQPREPQVYTLPPSREEMTKNQVSLTCLVKGFYPSDIAVEWESNGQPENNYKTTPPVLDSDGSFLLYSKLTVDKSRWQQGNVFSCSVMHEALHNHYTQKSLSLSPG
light 1: AIQMTQSPSSVSASVGDRVTITCRASQGVSSWLAWYQQKPGRAPKLLIYVASTLQSGVPSRFSGSGSGTDFTLTINSLQPEDFATYYCQQANSFPPTFGQGTRLEMKRTVAAPSVFIFPPSDEQLKSGTASVVCLLNNFYPREAKVQWKVDNALQSGNSQESVTEQDSKDSTYSLSSTLTLSKADYEKHKVYACEVTHQGLSSPVTKSFNRGEC
heavy 2: QVQLQESGPGLVKPSGTLSLTCAVSGGSISSYSWWSWIRQPPGKGLEWIGELYHSGSTNYNPSLKSRVTISVDKSKNQFSLKLRSVTAADTAVYYCVRGVATIDYWGQGTLVTVSSASTKGPSVFPLAPSSKSTSGGTAALGCLVKDYFPEPVTVSWNSGALTSGVHTFPAVLQSSGLYSLSSVVTVPSSSLGTQTYICNVNHKPSNTKVDKRVEPKSCDKTHTCPPCPAPEFERGPSVFLFPPKPKDTLMISRTPEVTCVVVDVSHEDPEVKFNWYVDGVEVHNAKTKPREEQYNSTYRVVSVLTVLHQDWLNGKEYKCKVSNKALPAPIEKTISKAKGQPREPQVYTLPPSREEMTKNQVSLTCLVKGFYPSDIAVEWESNGQPENNYKTTPPVLDSDGSFFLYSRLTVDKSRWQQGNVFSCSVMHEALHNHYTQKSLSLSPG
light 2: QSALTQPPSASGSPGQSVTISCTGTSSDVGGYNFVSWYQQDPGKAPKLLIYEVTKRPSGVPDRFSGSKSGNTASLTVSGLQAEDEADYYCSSYAGSNNVMFGGGTKLTVLGQPKAAPSVTLFPPSSEELQANKATLVCLISDFYPGAVTVAWKADSSPVKAGVETTTPSKQSNNKYAASSYLSLTPEQWKSHRSYSCQVTHEGSTVEKTVAPTECS
notes: Human IgG1 bispecific made by controlled Fab-arm exchange of IgG1-FAPα-FERL and IgG1-DR4-FERR; monovalent for FAPα and for DR4; also called GEN1057
Turning to B1, the values for the EC50 in assay [1], in assay [2] and in assay [3] were 0.67 µg/mL, 0.73 µg/mL and 0.24 µg/mL, respectively. Further, the binding result in assay [4] was “binds”.

One may read the EC50 as the concentration giving half of the maximal effect. Read a high EC50 as lower potency in that assay.
